biological target: acetylcholine receptor; test: SPR, AchR immobilised on CM5 chip, peptide at 10 uM

| Binding affinity (RU) | Binder |
| --- | --- |
| 30 | KPTGR [5mer-1185] |
| 25 | RAADK [5mer-1198] |
| 30 | RDMIR [5mer-1175] |
| 22 | RFDNR [5mer-1178] |
| 32 | KTHEK [5mer-1166] |
| 21 | RNMNR [5mer-1165] |
| 30 | KECKR [5mer-1173] |
| 27 | KHHIR [5mer-1187] |
| 25 | KIWWR [5mer-1172] |
| 11 | RKMDK [5mer-1189] |
| 30 | KPSGK [5mer-1188] |
| 22 | KHWFK [5mer-1193] |
| 153 | RRRVLR [6mer-1-402] |
| 28 | RYAKK [5mer-1192] |
| 21 | RCSWK [5mer-1171] |
| 28 | KHSEK [5mer-1170] |
| 27 | KETAK [5mer-1180] |
| 24 | RICIR [5mer-1196] |

| Binding affinity (RU) | Binder |
| --- | --- |
| 25 | KYSGK [5mer-1174] |
| 32 | RFSEK [5mer-1190] |
| 15 | REKWK [5mer-1182] |
| 20 | KIPVR [5mer-1177] |
| 14 | RDSMK [5mer-1184] |
| 19 | RHWEK [5mer-1195] |
| 18 | RMNVR [5mer-1179] |
| 12 | KMWVK [5mer-1186] |
| 31 | RHHWR [5mer-1168] |
| 18 | RDNGK [5mer-1194] |
| 29 | KDTPK [5mer-1169] |
| 30 | RMDWK [5mer-1191] |
| 25 | KIHFK [5mer-1176] |
| 12 | KESWK [5mer-1167] |
| 22 | KKAKR [5mer-1181] |
| 13 | RHAPK [5mer-1183] |
| 24 | KDDAR [5mer-1197] |

More lines, now with the values behind:

| Binder | Binding affinity (RU) |
| --- | --- |
| KDCMK [5mer-879] | 13 |
| KIWEK [5mer-884] | 28 |
| KDSWK [5mer-867] | 14 |
| REEGR [5mer-882] | 18 |
| RYNFR [5mer-873] | 32 |
| KHCNK [5mer-875] | 33 |
| RCHAK [5mer-860] | 31 |
| RMMER [5mer-865] | 21 |
| KKCIR [5mer-888] | 31 |
| RKPMR [5mer-892] | 29 |
| RCDKK [5mer-880] | 17 |
| KHTER [5mer-878] | 24 |
| KTPGR [5mer-889] | 25 |
| KETAR [5mer-876] | 16 |
| KCHDR [5mer-1161] | 21 |
| KKSKR [5mer-1163] | 12 |
| RIKIK [5mer-893] | 18 |
| KKHPK [5mer-869] | 31 |
| RFTKK [5mer-895] | 18 |
| KKNAK [5mer-862] | 19 |
| RKKMK [5mer-891] | 24 |
| KMSAK [5mer-883] | 16 |

| Binder | Binding affinity (RU) |
| --- | --- |
| RHSHR [5mer-871] | 21 |
| RINWR [5mer-866] | 11 |
| RYHWR [5mer-896] | 27 |
| KYHPR [5mer-864] | 25 |
| KFCER [5mer-897] | 30 |
| KKHFK [5mer-890] | 33 |
| RMMFR [5mer-886] | 21 |
| REANR [5mer-863] | 16 |
| RKKWK [5mer-872] | 29 |
| KMSPR [5mer-894] | 18 |
| KTKIR [5mer-861] | 20 |
| RNDAK [5mer-881] | 31 |
| RYCMR [5mer-898] | 20 |
| KIKKK [5mer-1162] | 15 |
| RCKVK [5mer-870] | 25 |
| KETWR [5mer-1160] | 14 |
| KTPVR [5mer-887] | 30 |
| RFSMR [5mer-877] | 17 |
| RHCNR [5mer-885] | 19 |
| KMHFK [5mer-868] | 18 |
| RFPWR [5mer-1164] | 33 |
| RIHMR [5mer-874] | 27 |

Source: patent US20250011363A1, “OPTIMIZED SHORTENED PEPTIDE THAT BINDS TO ACETYLCHOLINE RECEPTOR, AND USE THEREOF” (SKINMED CO., LTD., priority 2021, published 2025)
